Common to all, as to assay: cell-based or functional assay
For experiment [1], the target named is protein kinase A (PKA).
Experiment [2] concerns the target protein kinase B (PKB).
Experiment [3] deals with protein kinase A (PKA). This is another data set of the same source.
Experiment [4] has as its target protein kinase B (PKB). This is another data set of the same source.

Square brackets hold non-standard residues; d marks the D form. Ends that are not written are not given here. * marks the point of attachment. Cholesteryloxycarbonyl = CC(C)CCC[C@@H](C)[C@H]1CC[C@H]2[C@@H]3CC=C4C[C@@H](OC(=O)*)CC[C@]4(C)[C@H]3CC[C@]12C; hLeu = CC(C)CC[C@H](N)C(=O)O; Orn = NCCC[C@H](N)C(=O)O; Nva = CCC[C@H](N)C(=O)O; Dap = NC[C@H](N)C(=O)O

B1: PTR 6316 (peptide)
peptide: RQIKIWFQNRRMKWKKRPR[Nva]Y[Dap][hLeu]K(Cholesteryloxycarbonyl)-NH2
modifications: N-terminus assumed
SMILES: CCC[C@H](NC(=O)[C@H](CCCNC(=N)N)NC(=O)[C@@H]1CCCN1C(=O)[C@H](CCCNC(=N)N)NC(=O)[C@H](CCCCN)NC(=O)[C@H](CCCCN)NC(=O)[C@H](Cc1c[nH]c2ccccc12)NC(=O)[C@H](CCCCN)NC(=O)[C@H](CCSC)NC(=O)[C@H](CCCNC(=N)N)NC(=O)[C@H](CCCNC(=N)N)NC(=O)[C@H](CC(N)=O)NC(=O)[C@H](CCC(N)=O)NC(=O)[C@H](Cc1ccccc1)NC(=O)[C@H](Cc1c[nH]c2ccccc12)NC(=O)[C@@H](NC(=O)[C@H](CCCCN)NC(=O)[C@@H](NC(=O)[C@H](CCC(N)=O)NC(=O)[C@@H](N)CCCNC(=N)N)[C@@H](C)CC)[C@@H](C)CC)C(=O)N[C@@H](Cc1ccc(O)cc1)C(=O)N[C@@H](CN)C(=O)N[C@@H](CCC(C)C)C(=O)N[C@@H](CCCCNC(=O)O[C@H]1CC[C@@]2(C)C(=CC[C@H]3[C@@H]4CC[C@H]([C@H](C)CCCC(C)C)[C@@]4(C)CC[C@@H]32)C1)C(N)=O
B1: in the experiment with protein kinase A (PKA) [1], the “IC50, in vitro kinase assay PKA” value was determined as 5000 nM. The “IC50, in vitro kinase assay PKB” value with protein kinase B (PKB) [2] was determined as 100 nM. Regarding Cholesteryloxycarbonyl-RPR[Orn]E(aminopropylmercaptoisoquinoline)SF-NH2 [PTR 6300], the “IC50, in vitro kinase assay PKA” value with protein kinase A (PKA) [1] came out at 300 nM. Take RPR[Orn]E(NH‑(CH2)2‑NH‑SO2‑Isoquinoline)SF [PTR 6132]: the “IC50, PKA kinase inhibition” value with protein kinase A (PKA) [3] was determined as 12 nM. Also, in the experiment with protein kinase B (PKB) [4], the “IC50, PKB kinase inhibition” value came out at 20 nM.

B2: PTR 6154 (peptide)
peptide: RPR[Nva]Y[Dap][hLeu]-NH2
modifications: N-terminus assumed
SMILES: CCC[C@H](NC(=O)[C@H](CCCNC(=N)N)NC(=O)[C@@H]1CCCN1C(=O)[C@@H](N)CCCNC(=N)N)C(=O)N[C@@H](Cc1ccc(O)cc1)C(=O)N[C@@H](CN)C(=O)N[C@@H](CCC(C)C)C(N)=O
With B2, in the experiment with protein kinase A (PKA) [3], the “IC50, PKA kinase inhibition” value was greater than 50000 nM. In addition, in the experiment with protein kinase B (PKB) [4], the “IC50, PKB kinase inhibition” value was 900 nM.

B3: PTR 6184 (peptide)
peptide: RPR[Nva]YA[hLeu]-NH2
modifications: N-terminus assumed
SMILES: CCC[C@H](NC(=O)[C@H](CCCNC(=N)N)NC(=O)[C@@H]1CCCN1C(=O)[C@@H](N)CCCNC(=N)N)C(=O)N[C@@H](Cc1ccc(O)cc1)C(=O)N[C@@H](C)C(=O)N[C@@H](CCC(C)C)C(N)=O
Consider B3, for which, in the experiment with protein kinase A (PKA) [3], the “IC50, PKA kinase inhibition” value was greater than 50000 nM. The “IC50, PKB kinase inhibition” value in the experiment with protein kinase B (PKB) [4] stood at 300 nM.

Values taken from US20070078092A1 (CUREGENICS, published 2007).
